Measured values: patent publication US20220411483A1 (Chugai, published 2022)

T1: FcγRIIa R type extracellular domain, His tag (human, UniProt P12318 34-217)
T1 construct: extracellular domain; also called FcgRIIaR
T1 sequence (looked up): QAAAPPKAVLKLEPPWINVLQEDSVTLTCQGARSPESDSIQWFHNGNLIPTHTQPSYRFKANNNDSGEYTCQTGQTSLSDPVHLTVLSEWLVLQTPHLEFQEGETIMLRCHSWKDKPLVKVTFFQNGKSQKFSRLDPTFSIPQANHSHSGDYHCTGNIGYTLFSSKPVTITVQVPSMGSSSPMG

T2: FcγRIIb extracellular domain, His tag (human, UniProt P31994 43-217)
T2 construct: extracellular domain; also called FcgRIIb
T2 sequence (looked up): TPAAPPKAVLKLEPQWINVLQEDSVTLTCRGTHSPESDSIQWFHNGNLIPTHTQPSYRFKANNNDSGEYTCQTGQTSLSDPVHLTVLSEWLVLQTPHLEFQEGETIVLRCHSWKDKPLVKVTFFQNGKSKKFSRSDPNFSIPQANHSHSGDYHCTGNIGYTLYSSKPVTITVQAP

T3: FcγRIIa R type extracellular domain with C-terminal His tag (human, UniProt P12318 34-217)
T3 construct: extracellular domain; also called FcgRIIaR; not shown: His tag at the C terminus
T3 sequence (looked up): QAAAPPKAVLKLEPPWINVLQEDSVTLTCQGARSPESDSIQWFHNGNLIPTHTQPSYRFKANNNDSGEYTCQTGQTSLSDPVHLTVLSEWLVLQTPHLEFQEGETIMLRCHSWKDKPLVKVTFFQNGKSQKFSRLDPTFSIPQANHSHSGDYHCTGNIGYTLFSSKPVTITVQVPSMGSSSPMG

T4: FcγRIIb extracellular domain with C-terminal His tag (human, UniProt P31994 43-217)
T4 construct: extracellular domain; also called FcgRIIb; not shown: His tag at the C terminus
T4 sequence (looked up): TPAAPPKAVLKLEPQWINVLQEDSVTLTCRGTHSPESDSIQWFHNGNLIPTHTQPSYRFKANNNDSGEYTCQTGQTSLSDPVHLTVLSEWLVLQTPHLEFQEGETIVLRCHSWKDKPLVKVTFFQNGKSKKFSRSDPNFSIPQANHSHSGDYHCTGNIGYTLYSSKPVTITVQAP

T5: FcgRIIb (human, UniProt P31994 43-217)
T5 construct: extracellular domain; also called FcγRIIb
T5 sequence (looked up): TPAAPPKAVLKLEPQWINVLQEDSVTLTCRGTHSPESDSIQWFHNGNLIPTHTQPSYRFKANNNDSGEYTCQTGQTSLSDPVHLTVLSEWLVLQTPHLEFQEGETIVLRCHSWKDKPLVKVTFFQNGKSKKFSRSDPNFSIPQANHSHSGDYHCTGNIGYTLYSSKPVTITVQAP


What was measured:
[1] = molecular target: T1, FcγRIIa R type extracellular domain, …; assay: SPR, bound amount per captured antibody
[2] = molecular target: T2, FcγRIIb extracellular domain, His tag; assay: SPR, bound amount per captured antibody
[3] = molecular target: T3, FcγRIIa R type extracellular domain …; assay: SPR; amount bound divided by amount of IL6R-F652/IL6R-L bound, x100
[4] = molecular target: T4, FcγRIIb extracellular domain with …; assay: as above
FcgRIIb = molecular target: T5, FcgRIIb; assay: SPR, amount bound per captured antibody

| Binder | Relative FcgRIIaR-binding Activity [1] | Relative FcgRIIb-binding Activity [2] | Relative FcgRIIaR-binding Activity [3] | Relative FcgRIIb-binding Activity [4] | Relative FcgRIIb-binding Activity (FcgRIIb) |
| --- | --- | --- | --- | --- | --- |
| IL6R-F652/IL6R-L (antibody, human IgG1, kappa, IL6R-F648 (P238D) with M252Y and N434Y) heavy: QVQLQESGPGLVKPSETLSLTCAVSGHSISHDHAWSWVRQPPGEGLEWIGFISYSGITNYNPSLQGRVTISRDNSKNTLYLQMNSLRAEDTAVYYCARSLARTTAMDYWGEGTLVTVSSASTKGPSVFPLAPSSKSTSGGTAALGCLVKDYFPEPVTVSWNSGALTSGVHTFPAVLQSSGLYSLSSVVTVPSSSLGTQTYICNVNHKPSNTKVDKKVEPKSCDKTHTCPPCPAPELLGGDSVFLFPPKPKDTLYISRTPEVTCVVVDVSHEDPEVKFNWYVDGVEVHNAKTKPREEQYNSTYRVVSVLTVLHQDWLNGKEYKCKVSNKALPAPIEKTISKAKGQPREPQVYTLPPSRDELTKNQVSLTCLVKGFYPSDIAVEWESNGQPENNYKTTPPVLDSDGSFFLYSKLTVDKSRWQQGNVFSCSVMHEALHYHYTQKSLSLSP light: not shown | 100 % of IL6R-F652/IL6R-L | 100 % of IL6R-F652/IL6R-L |  |  |  |
| IL6R-PD004/IL6R-L (antibody, human IgG1, kappa) heavy: QVQLQESGPGLVKPSETLSLTCAVSGHSISHDHAWSWVRQPPGEGLEWIGFISYSGITNYNPSLQGRVTISRDNSKNTLYLQMNSLRAEDTAVYYCARSLARTTAMDYWGEGTLVTVSSASTKGPSVFPLAPSSKSTSGGTAALGCLVKDYFPEPVTVSWNSGALTSGVHTFPAVLQSSGLYSLSSVVTVPSSSLGTQTYICNVNHKPSNTKVDKKVEPKSCDKTHTCPPCPAPELLGGDSVFLFPPKPKDTLYISRTPEVTCVVVDVSPEDPEVKFNWYVDGVEVHNAKTKPREEQYNSTYRVVSVLTVLHQDWLNGKEYKCKVSNKALPAPIEKTISKAKGQPREPQVYTLPPSRDELTKNQVSLTCLVKGFYPSDIAVEWESNGQPENNYKTTPPVLDSDGSFFLYSKLTVDKSRWQQGNVFSCSVMHEALHYHYTQKSLSLSP light: not shown | 77 % of IL6R-F652/IL6R-L | 80.5 % of IL6R-F652/IL6R-L |  |  |  |
| IL6R-PD012/IL6R-L (antibody, human IgG1, kappa) heavy: QVQLQESGPGLVKPSETLSLTCAVSGHSISHDHAWSWVRQPPGEGLEWIGFISYSGITNYNPSLQGRVTISRDNSKNTLYLQMNSLRAEDTAVYYCARSLARTTAMDYWGEGTLVTVSSASTKGPSVFPLAPSSKSTSGGTAALGCLVKDYFPEPVTVSWNSGALTSGVHTFPAVLQSSGLYSLSSVVTVPSSSLGTQTYICNVNHKPSNTKVDKKVEPKSCDKTHTCPPCPAPELLGGDSVFLFPPKPKDTLYISRTPEVTCVVVDVSHEDPEVKFNWYVDGVEVHNAKTKPREEQYNSTYRVVSVLTVLHQDWLNGKEYKCKVNNKALPAPIEKTISKAKGQPREPQVYTLPPSRDELTKNQVSLTCLVKGFYPSDIAVEWESNGQPENNYKTTPPVLDSDGSFFLYSKLTVDKSRWQQGNVFSCSVMHEALHYHYTQKSLSLSP light: not shown | 92.5 % of IL6R-F652/IL6R-L | 102 % of IL6R-F652/IL6R-L |  |  |  |
| IL6R-PD013/IL6R-L (antibody, human IgG1, kappa) heavy: QVQLQESGPGLVKPSETLSLTCAVSGHSISHDHAWSWVRQPPGEGLEWIGFISYSGITNYNPSLQGRVTISRDNSKNTLYLQMNSLRAEDTAVYYCARSLARTTAMDYWGEGTLVTVSSASTKGPSVFPLAPSSKSTSGGTAALGCLVKDYFPEPVTVSWNSGALTSGVHTFPAVLQSSGLYSLSSVVTVPSSSLGTQTYICNVNHKPSNTKVDKKVEPKSCDKTHTCPPCPAPELLGGDSVFLFPPKPKDTLYISRTPEVTCVVVDVSHEDPEVKFNWYVDGVEVHNAKTKPREEQYNSTYRVVSVLTVLHQDWLNGKEYKCKVHNKALPAPIEKTISKAKGQPREPQVYTLPPSRDELTKNQVSLTCLVKGFYPSDIAVEWESNGQPENNYKTTPPVLDSDGSFFLYSKLTVDKSRWQQGNVFSCSVMHEALHYHYTQKSLSLSP light: not shown | 90.8 % of IL6R-F652/IL6R-L | 91.9 % of IL6R-F652/IL6R-L |  |  |  |
| IL6R-PD038/IL6R-L (antibody, human IgG1, kappa, human IgG1) heavy: QVQLQESGPGLVKPSETLSLTCAVSGHSISHDHAWSWVRQPPGEGLEWIGFISYSGITNYNPSLQGRVTISRDNSKNTLYLQMNSLRAEDTAVYYCARSLARTTAMDYWGEGTLVTVSSASTKGPSVFPLAPSSKSTSGGTAALGCLVKDYFPEPVTVSWNSGALTSGVHTFPAVLQSSGLYSLSSVVTVPSSSLGTQTYICNVNHKPSNTKVDKKVEPKSCDKTHTCPPCPAPERLGGDSVFLFPPKPKDTLYISRTPEVTCVVVDVSHEDPEVKFNWYVDGVEVHNAKTKPREEQYNSTYRVVSVLTVLHQDWLNGKEYKCKVSNKALPAPIEKTISKAKGQPREPQVYTLPPSRDELTKNQVSLTCLVKGFYPSDIAVEWESNGQPENNYKTTPPVLDSDGSFFLYSKLTVDKSRWQQGNVFSCSVMHEALHYHYTQKSLSLSP light: not shown |  |  | 7.8 | 5.4 |  |
| IL6R-BP365/IL6R-L (antibody, human IgG1, kappa, name in EU numbering) heavy: QVQLQESGPGLVKPSETLSLTCAVSGHSISHDHAWSWVRQPPGEGLEWIGFISYSGITNYNPSLQGRVTISRDNSKNTLYLQMNSLRAEDTAVYYCARSLARTTAMDYWGEGTLVTVSSASTKGPSVFPLAPSSKSTSGGTAALGCLVKDYFPEPVTVSWNSGALTSGVHTFPAVLQSSGLYSLSSVVTVPSSSLGTQTYICNVNHKPSNTKVDKKVEPKSCDKTHTCPPCPAPDLLGDDSVFLFPPKPKDTLMISRTPEVTCVVVDVYEEDGEVKFNWYVDGVEVHNAKTKPREEQYNSTYRVVSVLTVLHQDWLNGKEYKCKVSNKALPAPIEKTISKAKGQPREPQVYTLPPSRDELTKNQVSLTCLVKGFYPSDIAVEWESNGQPENNYKTTPPVLDSDGSFFLYSKLTVDKSRWQQGNVFSCSVMHEALHNHYTQESLSLSP light: not shown |  |  |  |  | 16.7 IL6R-BP267/IL6R-L=100 |

Next, values leading:

| Relative FcgRIIaR-binding Activity [1] | Relative FcgRIIb-binding Activity [2] | Relative FcgRIIaR-binding Activity [3] | Relative FcgRIIb-binding Activity [4] | Relative FcgRIIb-binding Activity (FcgRIIb) | Binder |
| --- | --- | --- | --- | --- | --- |
|  |  | 37.7 | 7.9 |  | IL6R-PD044/IL6R-L (antibody, human IgG1, kappa, human IgG1) heavy: QVQLQESGPGLVKPSETLSLTCAVSGHSISHDHAWSWVRQPPGEGLEWIGFISYSGITNYNPSLQGRVTISRDNSKNTLYLQMNSLRAEDTAVYYCARSLARTTAMDYWGEGTLVTVSSASTKGPSVFPLAPSSKSTSGGTAALGCLVKDYFPEPVTVSWNSGALTSGVHTFPAVLQSSGLYSLSSVVTVPSSSLGTQTYICNVNHKPSNTKVDKKVEPKSCDKTHTCPPCPAPELAGGDSVFLFPPKPKDTLYISRTPEVTCVVVDVSHEDPEVKFNWYVDGVEVHNAKTKPREEQYNSTYRVVSVLTVLHQDWLNGKEYKCKVSNKALPAPIEKTISKAKGQPREPQVYTLPPSRDELTKNQVSLTCLVKGFYPSDIAVEWESNGQPENNYKTTPPVLDSDGSFFLYSKLTVDKSRWQQGNVFSCSVMHEALHYHYTQKSLSLSP light: not shown |
|  |  | 20.6 | 10.4 |  | IL6R-PD072/IL6R-L (antibody, human IgG1, kappa, human IgG1) heavy: QVQLQESGPGLVKPSETLSLTCAVSGHSISHDHAWSWVRQPPGEGLEWIGFISYSGITNYNPSLQGRVTISRDNSKNTLYLQMNSLRAEDTAVYYCARSLARTTAMDYWGEGTLVTVSSASTKGPSVFPLAPSSKSTSGGTAALGCLVKDYFPEPVTVSWNSGALTSGVHTFPAVLQSSGLYSLSSVVTVPSSSLGTQTYICNVNHKPSNTKVDKKVEPKSCDKTHTCPPCPAPELLQGDSVFLFPPKPKDTLYISRTPEVTCVVVDVSHEDPEVKFNWYVDGVEVHNAKTKPREEQYNSTYRVVSVLTVLHQDWLNGKEYKCKVSNKALPAPIEKTISKAKGQPREPQVYTLPPSRDELTKNQVSLTCLVKGFYPSDIAVEWESNGQPENNYKTTPPVLDSDGSFFLYSKLTVDKSRWQQGNVFSCSVMHEALHYHYTQKSLSLSP light: not shown |
|  |  | 0.5 | 11.8 |  | IL6R-PD085/IL6R-L (antibody, human IgG1, kappa, human IgG1) heavy: QVQLQESGPGLVKPSETLSLTCAVSGHSISHDHAWSWVRQPPGEGLEWIGFISYSGITNYNPSLQGRVTISRDNSKNTLYLQMNSLRAEDTAVYYCARSLARTTAMDYWGEGTLVTVSSASTKGPSVFPLAPSSKSTSGGTAALGCLVKDYFPEPVTVSWNSGALTSGVHTFPAVLQSSGLYSLSSVVTVPSSSLGTQTYICNVNHKPSNTKVDKKVEPKSCDKTHTCPPCPAPELLGKDSVFLFPPKPKDTLYISRTPEVTCVVVDVSHEDPEVKFNWYVDGVEVHNAKTKPREEQYNSTYRVVSVLTVLHQDWLNGKEYKCKVSNKALPAPIEKTISKAKGQPREPQVYTLPPSRDELTKNQVSLTCLVKGFYPSDIAVEWESNGQPENNYKTTPPVLDSDGSFFLYSKLTVDKSRWQQGNVFSCSVMHEALHYHYTQKSLSLSP light: not shown |
|  |  | 7.9 | 23.7 |  | IL6R-PD090/IL6R-L (antibody, human IgG1, kappa, human IgG1) heavy: QVQLQESGPGLVKPSETLSLTCAVSGHSISHDHAWSWVRQPPGEGLEWIGFISYSGITNYNPSLQGRVTISRDNSKNTLYLQMNSLRAEDTAVYYCARSLARTTAMDYWGEGTLVTVSSASTKGPSVFPLAPSSKSTSGGTAALGCLVKDYFPEPVTVSWNSGALTSGVHTFPAVLQSSGLYSLSSVVTVPSSSLGTQTYICNVNHKPSNTKVDKKVEPKSCDKTHTCPPCPAPELLGRDSVFLFPPKPKDTLYISRTPEVTCVVVDVSHEDPEVKFNWYVDGVEVHNAKTKPREEQYNSTYRVVSVLTVLHQDWLNGKEYKCKVSNKALPAPIEKTISKAKGQPREPQVYTLPPSRDELTKNQVSLTCLVKGFYPSDIAVEWESNGQPENNYKTTPPVLDSDGSFFLYSKLTVDKSRWQQGNVFSCSVMHEALHYHYTQKSLSLSP light: not shown |
